The text below walks through data of the nanobody polyreactivity screen of Harvey et al. (2022).

The nature of the series: yeast display, Sf9 membrane polyspecificity reagent, FACS + sequencing; frameworks hold sequencing errors. The procedure, abridged: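 Using colony PCR, genes from sorted yeast display clones were amplified, then sequenced on MiSeq at 2 × 250 and filtered by CDR length. The clones had been stained with 10% biotinylated, detergent-solubilized Sf9 membrane reagent for 1 hour at 4 °C and sorted by FACS into low and high (top ~1%) gates on anti-HA and streptavidin fluorescence. Polyreactivity labels come from the gate of origin.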
“QVQLVESGGGLVQAGGSLRLSCAASGRTFYSYTMGWYRQAPGKERELVAAINRGGSTYYADSVKGRFTISRDNAKNTVYLQMNSLYPVDNAVYYCAVGYAHSSNRRYYYKQTHGYWGQGTQVTVSS”: the “polyreactivity (PSR sort gate)” value is on record as “low polyreactivity”.
Then “QVQLVESGGGLVQAGGSLRLSCAASGRTFYSYVMGWYRQAPGKERELVAAISGRGVSTYYADSVKGRFTISRDNAKNTVYLQMNSLKPEDTAVYYCAAETVHGSADFDYWGQGTQVTVSS”, with “low polyreactivity”.
Then “QVQLVESGGGLVQAGGSLRLSCAASGRTFYTNAMGRYRQAPGKERELVAAISRGGGRTYYADSVKGRFTISRDNAKNTVYLQMNSLKPEDTAVYYCAASPYQGQGREYYYWGQGTQVTVSS”, with “high polyreactivity”.
To “QVQLVESGGGLVQAGGSLRLSCAASGRTFYTNAMGWYRQAPGKERELVAAISRGGGRTYYADSVKGRFTISRDNAKNTVYLQMNSLKPEDTAVYYCAASPYQGQGREYYYWGQGTQVTVSS” belongs “high polyreactivity”.
Turning to “QVQLVESGGGLVQAGGSLRLSCAASGRTFYTNAMGWYRQAPGKERELVASISGSGGSTYYADSVKGRFTISRDNAKNTVYLQMNSLKPEDTAVYYCAADPAPTVEFGKYDYWGQGTQVTVSS”, the “polyreactivity (PSR sort gate)” value is reported as “low polyreactivity”.
For the sequence “QVQLVESGGGLVQAGGSLRLSCAASGRTFYTYAMGLYRQAPGNERELVATITSGGSTYYADSVKGRFTISRDNAKNTVYLQMNSLKPEDTAVYYCARRRRESRQDGDYWVQGTQVTVSS”, the “polyreactivity (PSR sort gate)” value is “high polyreactivity”.
Then “QVQLVESGGGLVQAGGSLRLSCAASGRTFYTYAMGWYRQAPGKERELVAAISSSGSTYYADSVKGRFTISRDNAKNTVYLQMNSLKPEDTAVYYCNARTSRYRRGGDSWGQGTQVTVSS”, with “high polyreactivity”.
To “QVQLVESGGGLVQAGGSLRLSCAASGRTFYTYAMGWYRQAPGKESELVATIRWSGGSTRYADSVKGRFTISRDYAKNTVYLQMNSLKPEDTAVYYCAADNYYRRKYKYDYWGQGNQVTVSS” belongs “high polyreactivity”; to “QVQLVESGGGLVQAGGSLRLSCAASGRTFYTYTMGWYRQAPGKERELVAAISKSGTSTYYADSVKGRFTISRDNAKNTVYLQMNSLKPEDTAVYYCAARAYYARFLMGYWGQGTQVTVSS”, “high polyreactivity”.
To “QVQLVESGGGLVQAGGSLRLSCAASGRTFYTYVMGWYRQAPGKEREFVAAITYSGGSTYYADSVKGRFTISRDNAKNTVYLQMNSLKPEDTAVYYCNAEWTYSEWYGQYLEFDYWGQGTQVTVSS” belongs “high polyreactivity”; to “QVQLVESGGGLVQAGGSLRLSCAASGRTFYVNAMGWYRQAPGKEMELVAAITNGGRTNYADSVKGRFTISRDNAKNTVYLQMNSLKPEDTAVYYCNKVSLRTQSAQFHYWGQGTQVTVSS”, “high polyreactivity”.
With “QVQLVESGGGLVQAGGSLRLSCAASGRTFYVYAMGWYRQAPGKERELVAAISADGGRTYYADSVKGRFTISRDNAKNTVYLQMNSLKPEDTAVYYCAAWRHTLGDYWGQGTQVNVSS”, the “polyreactivity (PSR sort gate)” value was “high polyreactivity”.
Then “QVQLVESGGGLVQAGGSLRLSCAASGRTFYVYAMGWYRQAPGKERELVAAISWSGGSTYYADSVKGRFTISRDNAKNTVYLQMNSLKPEDTAVYYCAAQTYQRHVVAYDYWGQGTQVTVSS”, with “low polyreactivity”.
Then “QVQLVESGGGLVQAGGSLRLSCAASGRTFYVYAMGWYRQAPGKERELVAAITSGGRTYYADSVKGRFTISRDNAKNTVYLQMNSLKPEDTAVYYCAVGNGLSRYVYGDYDYWGQGTQVTVSS”, with “high polyreactivity”; and “QVQLVESGGGLVQAGGSLRLSCAASGRTFYVYTMGWYRQAPGKERELVAAITSGGSTNYADSVKGRFTISRDNAKNTVYLQMNSLKPEDTAVYYCAARVSTVFKRYYYCGQGTQVTVSS”, with “high polyreactivity”.
To “QVQLVESGGGLVQAGGSLRLSCAASGRTFYWNAMGWYRQAPGKEREFVAAITNTAGSTYYADSVKGRFTISRDNAKNTVYLQMNSLNPEDTAVYYCAKSGNGGYRTYLRDYWGQGTQVTVSS” belongs “low polyreactivity”.
On to “QVQLVESGGGLVQAGGSLRLSCAASGRTFYWNTMGWYRQAPGKERELVAAINYSGGSTYYADSVKGRFTISRDNAKNTVYLQMNSLKPEDTAVYYCAAYFHGYKSLHRARSEYNYWGQGTQVNVSS”, for which the “polyreactivity (PSR sort gate)” value is “high polyreactivity”.
Then “QVQLVESGGGLVQAGGSLRLSCAASGRTFYWYVMGWYRQAPGKERELVATITSGGSSNYADSVKGRFTISRDNAKNTVYLQRNSLKPEDTAVYYCNRDRLVRYEAEYDYWGQGTQVTVSS”, with “low polyreactivity”; and “QVQLVESGGGLVQAGGSLRLSCAASGRTFYYNAMGWYRQAPGKERELVAAISSRGGNTYYADSVKGRFTISRDNAKNTVYYQMNSLKPEDTAVYYCARRYPYPAYEYGYWGQGTQVTVSS”, with “high polyreactivity”.
To “QVQLVESGGGLVQAGGSLRLSCAASGRTFYYNAMGWYRQAPGKERELVAAISWSGGSTYYADSVKGRFTISRDNAKNTVYLQMNSLKPEDTAVYYCAADYEYSRAYGYDYWGQGTQVTVSL” belongs “low polyreactivity”; to “QVQLVESGGGLVQAGGSLRLSCAASGRTFYYNPMGWYRQAPGKERELVAAITQSGGRTYYADSVKGRFTISRDNAKNTVYVQMNSVKPEDSAVYYFYAVRPVRGYIYQGYNYWGQGTQVTVSS”, “high polyreactivity”; to “QVQLVESGGGLVQAGGSLRLSCAASGRTFYYNTKGWYRQAPGKERELVASISGSGGRTYFADSVKGRFTISRDTAKNTVYLQMNSLKPEDTAVYYCASSRARRSRYILDYWGQGTQVTVSS”, “high polyreactivity”.
To “QVQLVESGGGLVQAGGSLRLSCAASGRTFYYNTMGWYRQAPGKERELVAALSSRGGTTSYADSVKGRFTISRDNAKNSVYLQMNSLKPEDTAVYYCNAETYRRGSYDYWGQGTQVTVSS” belongs “high polyreactivity”; to “QVQLVESGGGLVQAGGSLRLSCAASGRTFYYNTMGWYRQAPGKERELVATISRIGGSTYYADSVKGRFTISRDNAKNTVYLQMNSLKPEDTAVYYCAKGRSLNGRPPVVYWQLFYYWGQGTQVTVSS”, “high polyreactivity”; to “QVQLVESGGGLVQAGGSLRLSCAASGRTFYYNTMGWYRQAPGKERELVATITSSGGRTYYADSVKGRFTISRDYAKNTVYLQMNSLKPEDTAVYYCNAALSRAFKHSTGYDYWGQGTQVTVSS”, “low polyreactivity”.
On to “QVQLVESGGGLVQAGGSLRLSCAASGRTFYYYALGWDRQAPAKERELVAAIRWRGGRTYADSVKGRFTISRDNAKNTVYVQMNSLKPEDTAVYYCAVESFYRHASLYDYWGQGTQVTVSS”, for which the “polyreactivity (PSR sort gate)” value was “high polyreactivity”.
For the sequence “QVQLVESGGGLVQAGGSLRLSCAASGRTFYYYAMGWYRQAPGKERELVAAISWSGGRTYYADSVKGRFTISRDNAKNTFYLQMNSMNPEDTAVYYCAADKYYSEFDYWGQGTQVTVSS”, the “polyreactivity (PSR sort gate)” value was “low polyreactivity”.
Then “QVQLVESGGGLVQAGGSLRLSCAASGRTFYYYAMGWYRQAPGKERELVAGITATGSSTYYADSVKGRFTISRDNAKNTVYLQMNSLKPEDTAVYYCAADRYTTYSGQWSYPYDYWGQGTQVTVSS”, with “low polyreactivity”; and “QVQLVESGGGLVQAGGSLRLSCAASGRTFYYYAMGWYRQAPGKERELVASITFSGGRTYYADSVKGRFTISRDNAKNTVYLQMNSLKPEDTAVYYFARPYYGRYYPNYGVTGVDYWGQGTQVTVSS”, with “high polyreactivity”; and “QVQLVESGGGLVQAGGSLRLSCAASGRTFYYYAMGWYRQAPGKERELVAVIRSSGDSTYYADSVKGRFTISRDNAKNTVYLQMNSLKPEDTAVYYCNADDWAYGMDYWGQGTQVTVSS”, with “low polyreactivity”.
Then “QVQLVESGGGLVQAGGSLRLSCAASGRTFYYYTMGWSRQAPGKERELVAAITSVGSTSYADSVKGRFTISRANAKNTVYLQMNSPKPEATAVYYCAADYQYVWFYYWGQGTQVTVSS”, with “high polyreactivity”; and “QVQLVESGGGLVQAGGSLRLSCAASGRTFYYYVMGWYRQAPGKERELVAAITKSTGSTYYADSVKGRFTISRDNAKNTVYLQMNSLKPEDTAVYYCAAAYWITTPYDYWGQGTQVTVSS”, with “low polyreactivity”; and “QVQLVESGGGLVQAGGSLRLSCAASGRTGSYAMGWYRQAPGQERELVAAISRRGANTYYADSVKGRFTISRDNAKNTVYLQMNSLKPEVTAVYYCAVPHLYSRVEYDYWGQGSQVTVSS”, with “high polyreactivity”.
Consider “QVQLVESGGGLVQAGGSLRLSCAASGRTIDLNAMGWYRQAPGKERELVAAITSSGSTNYADSVKGRFTISRDNAKNTVYLQMNSLKPDDTAVYYCNKDPIYSAEYWVGSVGFDYWGQGTQVTVSS”, for which the “polyreactivity (PSR sort gate)” value was “low polyreactivity”.
Then “QVQLVESGGGLVQAGGSLRLSCAASGRTIDSNAMGWYRQAPGKERELVAAISSDGGSTYYADSVKGRFTISRDNAKNTVYLQMNSLKPEDTAVYYCNAYYGRFPYYADDYWGQGTQVTVSS”, with “low polyreactivity”; and “QVQLVESGGGLVQAGGSLRLSCAASGRTIDYNGRGSYRQAPGKERELVAVISSSGGSPFYADSVKGRFTISRDNAKNTVYLQMNSLKPEDTAVYYCAADFIVAYTLHGSYDYWGQGTQVTVSS”, with “low polyreactivity”.
Then “QVQLVESGGGLVQAGGSLRLSCAASGRTIFRYAMGWYTQAPGKERDLVAAITWSGGTTYYADSVKGRFTISRDNAKNTVYLQMNSLKPEDTAVYYCNARGLWYRRVVTYGYWGQGTQVTVSS”, with “high polyreactivity”; and “QVQLVESGGGLVQAGGSLRLSCAASGRTIGLYDMGWYRQAHGKERELVAGITRRGGRTYYADSVKGRFTISRDNAKNSVYLQMNSLKPEDTAVYYCAAGTIYLRHAQSPFDYWGQGTQGTVSS”, with “high polyreactivity”; and “QVQLVESGGGLVQAGGSLRLSCAASGRTIIFNAMGWYRPAPGKERELVAAISSGGGTNYADSVKGRFTISRDNAKNTVYLQMNSLKPEDTAVYYCAADPRDHYSYVYDGYKYDYWGQGTQVTVSS”, with “low polyreactivity”.
Turning to “QVQLVESGGGLVQAGGSLRLSCAASGRTIITYAMGWYRQAPGKERELVAAINSTDGTSYADSVKGRFTISRDNAKNTVYLQMNSLKPEDTAVYYCARGTEVKSGISYRFYYWGQGTQVTVSS”, the “polyreactivity (PSR sort gate)” value is reported as “low polyreactivity”.
